The target in assay [1] is T1, human GalNAc-T1 D484A (β repeat variant) (human) (UniProt Q10472).
T1 sequence: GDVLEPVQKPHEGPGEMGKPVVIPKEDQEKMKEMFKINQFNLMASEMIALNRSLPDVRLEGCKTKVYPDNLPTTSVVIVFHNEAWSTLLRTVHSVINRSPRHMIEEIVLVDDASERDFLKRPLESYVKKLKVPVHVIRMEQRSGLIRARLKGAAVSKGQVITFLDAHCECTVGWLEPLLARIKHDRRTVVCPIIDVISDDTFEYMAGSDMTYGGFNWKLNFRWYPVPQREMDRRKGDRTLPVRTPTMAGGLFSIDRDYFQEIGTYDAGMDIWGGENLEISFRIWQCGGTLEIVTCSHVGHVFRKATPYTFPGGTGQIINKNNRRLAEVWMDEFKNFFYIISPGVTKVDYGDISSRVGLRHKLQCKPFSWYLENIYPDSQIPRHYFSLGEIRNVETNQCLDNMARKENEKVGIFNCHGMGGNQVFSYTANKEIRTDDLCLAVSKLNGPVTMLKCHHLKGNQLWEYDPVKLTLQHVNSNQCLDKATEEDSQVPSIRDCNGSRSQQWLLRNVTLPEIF

In assay [2] the target is T2, human GalNAc-T1 D444A (α repeat variant) (human) (UniProt Q10472).
T2 sequence: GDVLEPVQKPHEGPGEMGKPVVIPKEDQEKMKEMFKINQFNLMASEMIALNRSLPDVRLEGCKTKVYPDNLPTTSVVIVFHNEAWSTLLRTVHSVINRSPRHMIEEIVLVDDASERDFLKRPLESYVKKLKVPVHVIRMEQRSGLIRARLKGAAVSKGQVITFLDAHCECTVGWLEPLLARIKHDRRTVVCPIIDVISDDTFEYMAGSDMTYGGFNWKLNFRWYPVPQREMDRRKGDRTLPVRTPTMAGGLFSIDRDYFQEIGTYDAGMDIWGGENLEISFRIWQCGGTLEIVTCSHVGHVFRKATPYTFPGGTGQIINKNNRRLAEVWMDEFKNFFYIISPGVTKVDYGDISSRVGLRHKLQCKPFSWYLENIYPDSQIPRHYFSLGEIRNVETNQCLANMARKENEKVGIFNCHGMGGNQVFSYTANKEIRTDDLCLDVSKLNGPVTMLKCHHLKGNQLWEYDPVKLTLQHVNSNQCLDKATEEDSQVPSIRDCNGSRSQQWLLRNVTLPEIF

For assay [3], the target named is T3, mouse GalNAc-T1 (pKN55-His6-TEV-mGalNAc-T1-∆56) (mouse, UniProt O08912 57-559).
T3 construct: mouse polypeptide N-acetylgalactosaminyltransferase 1 (GalNAc-T1), construct printed as mGalNAc-T1-∆56 (read as lacking the first 56 residues); 98% identical to human GalNAc-T1; The construct has a TEV site after the His6 tag; The start at residue 57 is read from the name ∆56; also called N-acetylgalactosaminyl-transferase 1; source: SD200 16/60 gel filtration before crystallization
T3 sequence (looked up): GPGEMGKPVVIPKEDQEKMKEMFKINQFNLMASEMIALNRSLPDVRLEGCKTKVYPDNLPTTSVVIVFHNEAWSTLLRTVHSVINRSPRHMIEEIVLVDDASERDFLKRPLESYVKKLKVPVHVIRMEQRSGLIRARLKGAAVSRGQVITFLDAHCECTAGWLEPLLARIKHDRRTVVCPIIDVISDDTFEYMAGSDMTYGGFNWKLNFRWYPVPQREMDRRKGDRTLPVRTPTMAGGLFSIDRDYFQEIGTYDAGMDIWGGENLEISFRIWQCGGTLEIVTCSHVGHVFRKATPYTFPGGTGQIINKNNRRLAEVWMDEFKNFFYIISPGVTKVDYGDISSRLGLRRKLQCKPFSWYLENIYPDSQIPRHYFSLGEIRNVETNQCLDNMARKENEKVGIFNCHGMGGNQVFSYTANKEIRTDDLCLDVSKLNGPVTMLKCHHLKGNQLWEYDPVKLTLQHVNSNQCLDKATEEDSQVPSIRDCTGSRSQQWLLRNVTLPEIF
Briefly: crystal structure; mouse GalNAc-T1 (5 mg/ml) combined with 4 mM Muc5AC-13, 5 mM UDP and 5 mM MnCl2; hanging drops, 20% PEG-3350, 0.1 M MES pH 6.5; 2.3 Å. As to conditions: both partners purified.

No end group written: not given here. *: point of attachment. αGalNAc = CC(=O)N[C@@H]1[C@@H](O)[C@@H](O)[C@@H](CO)O[C@@H]1*

Take GATPAPVPAGAGT(αGalNAc)PAP [Muc5AC-A13 glycopeptide (GAT3…13^GalNAcPAP)]: in assay [1], the KM (UDP-Glo), fold increase compared to GalNAc-T1^WT is 20 fold and the kcat/KM (UDP-Glo), fold decrease compared to GalNAc-T1^WT worked out at 29 fold.

As to GAT(αGalNAc)PAPVPAGAGTPAP [Muc5AC-A3 glycopeptide (GAT3^GalNAc…13PAP)], in assay [2], the KM (UDP-Glo), fold increase compared to GalNAc-T1^WT turned out to be 10 fold and the kcat/KM (UDP-Glo), fold reduction compared to GalNAc-T1^WT was 16 fold.

B1: Muc5AC-13 glycopeptide (GTT3PSPVPTTSTT13^GalNAcSAP) (peptide)
peptide: GTTPSPVPTTSTT(αGalNAc)SAP
notes: Muc5AC mucin repeat peptide, 16 residues; numbers count on: the peptide; source: synthetic peptide (Anaspec)
With B1, the binding result in assay [3] is reported as “binds”.
